Reference: the supplement of paper PMC10567573

B1: HESX1 (parent)
chain: HVPNPPSGISFPSVVDHPMPEERA
B2: WEE1 (parent)
chain: INPFTPDSLLLHSSGQCRRRKRTY

Variants of: B1
Test: protein stability index of a GFP-peptide fusion (GPS, HEK-293T) (PSI 1-6); higher = more stable
Conditions: c terminus: a fixed tail appended
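Note: lentivirally expressed fusions sorted by FACS into six bins by GFP to DsRed ratio, PSI derived from sequencing read proportions per bin multiplied by bin number.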

Protein stability index: each site, then its substitutions
V15: Y 3.03; N 3.22; H 3.23; P 3.06; A 2.65; K 3.2; M 3.49; G 3.85; T 3.13; E 3.93; F 3.28; S 2.99; R 3.11; Q 3.63; D 4.55; C 2.04; L 3.61; I 3.16; W 2.17
P18: G 2.43; C 2.25; I 2.36; M 2.49; F 2.42; Y 2.48; D 2.78; A 2.61; Q 2.61; H 2.49; R 2.79; S 2.61; N 2.62; W 2.28; V 2.64; T 2.51; E 2.85; K 2.7; L 2.56
S13: Y 1.94; T 2.45; Q 2.71; R 2.59; V 2.43; W 2.14
E21: N 2.37; L 1.97; C 2.71; A 2.49; Q 2.33; I 1.95; G 2.08; M 1.86; P 2.06; R 2.52; F 1.96; T 2.52; Y 2.43; S 2.56; H 2.45; K 1.89; W 2; V 2.48; D 2.85
R23: P 2.76; E 2.76; C 2.56; A 2.53; G 3.19; V 2.49; N 2.73; T 2.6; M 2.38; I 2.58; K 2.77; D 3; S 2.36; Y 2.34; W 2.37; Q 2.21; F 2.11; L 2.1; H 2.99
V14: Y 3.21; D 4.63; C 2.25; M 3.1; N 4.43; E 4.36; Q 4.01; I 3.11; L 3.9; S 3.52; P 3.83; R 3.75; T 3.49; H 3.86; F 3.57; A 3.13; G 4.21; W 3.59; K 3.45
M19: G 2.44; A 2.99; E 3.69; D 2.94; Q 3.17; H 3.03; I 2.59; R 2.83; T 2.59; W 2.29; N 2.97; V 2.44; Y 2.27; L 2.39; C 2.37; K 3.31; F 2.65; S 3.18
E22: V 2.16; S 2.3; L 1.94; F 1.9; W 2.37; P 2.17; N 2.02; T 2.33; Q 2.77; A 2.72; K 1.83; R 2.26; Y 2.68; I 2.75; C 2.15; M 2.15; H 2.29; G 2.08; D 2.76
D16: A 2.72; P 2.37; Y 2.57; R 2.51; S 2.22; L 2.36; E 2.73; F 1.9; N 2; C 2.4; H 2.81; V 2.35; K 2.21; I 1.92; M 2.19; Q 2.51; T 2.03; W 1.57; G 2.18
A24: N 2.74; G 2.33; S 2.5; C 2.09; R 2.87; Q 2.38; D 2.77; P 2.98; L 2.32; F 2.3; I 2.36; E 2.95; T 2.87; W 1.91; M 2.77; Y 2.13; K 2.63; H 2.65; V 2.98
P20: A 2.74; V 2.55; K 2.54; D 2.98; F 2.21; E 2.48; N 3.28; Q 2.78; Y 2.24; G 2.61; I 2.49; H 2.65; T 2.91; L 2.48; S 2.82; M 2.79; C 2.45; R 2.88; W 2.1
H17: E 3.29; T 2.94; F 2.15; G 2.82; L 2.39; M 2.52; R 2.77; V 2.57; W 2.19; Q 2.68; Y 2.52; A 3.2; K 2.24; I 2.66; D 3.28; S 3.01; N 2.8; C 2.39; P 2.11

Variants of: B2
Test: as above
Conditions: c terminus: a fixed tail appended

Protein stability index: each site, then its substitutions
P3: L 2.61; F 2.33; I 2.69; V 2.71; R 3.4; D 3.33; H 3.93; W 1.3; Q 3.35; A 3.21; S 3.51; K 3.1; Y 2.38; T 3.06; M 2.99; C 3.41; N 3.12; G 3.11; E 3.44
F4: I 3.79; H 4.25; V 4.08; D 3.99; M 4.04; K 4.27; S 4.18; Q 4.22; L 3.2; E 4.48; C 3.67; R 3.77; G 4.05; T 4.38; A 4.11; N 4.08; W 3.87; P 4.58; Y 3.31
N2: H 3.19; C 3.69; A 3.09; V 3.39; Q 3.57; Y 2.55; L 2.37; E 3.93; G 3.48; K 2.83; T 3.59; R 2.9; P 3.29; D 4.16; W 2.39; I 2.36; F 2.35; S 3.54; M 3.08
P6: F 2.64; L 2.06; A 4; I 2.79; M 2.52; G 3.58; W 2.21; V 2.07; Y 2.56; E 3.71; R 3.02; H 3.18; D 3.87; N 4.07; C 3.04; Q 3.09; T 3.2; S 3.61; K 3.26
D7: F 2.12; A 3.13; C 2.46; H 2.69; G 2.24; E 3.6
T5: N 3.24; F 2.67; I 2.48; P 2.95; K 3.45; C 2.87; L 3.04; Q 3.78; D 4.01; S 3.23; A 3.93; W 2.51; H 3.33; G 3.76; E 3.98; M 2.89; R 3.41; Y 2.93; V 3.71
I1: A 4.07; F 2.73; M 3.33; W 3.83; S 3.52; D 4.03; V 3.55; H 3.89; T 3.87; N 4.17; K 3.62; Q 3.95; E 3.6; G 3.81; R 4.02; P 4.36; Y 3.05; L 3.19; C 3.17
